Results: the RNAGym collection of RNA variant scans (doi:10.1021/acssynbio.7b00057)

B1: Pistol ribozyme (parent)
chain: GGGUCGUUGUUCCAUAAUCGCGUGGAUAUGGCACGCAAGUUUCUACCGGGCACCGUAAAUGUCCGACUGGAGCCGUUCGGGCGGCUAUAAACAGACCUCAGGCCCGAAGCGUGGCGGCACCUGCCGCCGGUGGUAAAAAAGAUCGGAAGAGCACACGUCU

Variants of: B1
Assay: aptazyme ON/OFF ratio, guanine; higher = stronger switching; co-transcriptional cleavage with and without guanine

Variant | aptazyme ON/OFF ratio
U10G U11C C13A | 1.05
U10G U11C C13U | 1.04
U10G U11C C13G | 1.04
U11G C12G C13U | 1.32
U11G C12G C13A | 1.2
U11G C12G C13G | 1.27
U11C C13U | 1.24
U11C C13G | 1.07
U11C C13A | 1.2
U11C C12U | 1.57
U11C C12G | 1.55
U11C C12A | 1.43
U10C U11C C13A | 1.02
U10C U11C C13U | 1.03
U10C U11C C13G | 1.07
U10C U11G C12G C13U | 1.11
U10C U11G C12G C13G | 1.23
U10C U11G C12G C13A | 1.24
U10G U11A C12G C13A | 1.16
U10G U11A C12G C13G | 1.34
U10G U11A C12G C13U | 1.33
U10C C13G | 1.05
U10C C13A | 1.06

Variant | aptazyme ON/OFF ratio
U10C C13U | 1.08
U10C C12U C13U | 1.21
U10C C12U C13A | 1.13
U10C C12U C13G | 1.1
U10G C12U C13U | 1.15
U10G C12U C13A | 1.33
U10G C12U C13G | 1.28
U11G C13U | 1.06
U11G C13G | 1.03
U11G C13A | 1.05
U10G U11C C12A | 1.51
U10G U11C C12G | 1.43
U10G U11C C12U | 1.08
U10C U11G C12U C13G | 1.33
U10C U11G C12U C13U | 1.28
U10C U11G C12U C13A | 1.36
U11A C12U C13A | 1.36
U11A C12U C13U | 1.45
U11A C12U C13G | 1.37
U10G | 1.88
U10G U11A C13A | 1.15
U10G U11A C13U | 1.05
U10G U11A C13G | 1.12

Variant | aptazyme ON/OFF ratio
U11G C12U C13G | 1.04
U11G C12U C13A | 1.1
U11G C12U C13U | 1.11
U10G U11C C12A C13A | 1.23
U10G U11C C12A C13G | 1.12
U10G U11C C12A C13U | 1.4
U10C U11C C12A C13A | 1.19
U10C U11C C12A C13U | 1.08
U10C U11C C12A C13G | 1.17
U10C U11G | 1.57
U10C U11C | 1.06
U10C U11A | 1.47
U10C C12G C13U | 1.35
U10G U11A C12A | 1.39
U10G U11A C12G | 1.4
U10G U11A C12U | 1.15
U10G U11G C12A C13A | 1.15
U10G U11G C12A C13U | 1.22
U10G U11G C12A C13G | 1.11
U11G C12A C13U | 1.24
U11G C12A C13G | 1.22
U11G C12A C13A | 1.14
U11A | 1.84

Variant | aptazyme ON/OFF ratio
U11G | 1.22
U11C | 1.53
U10C U11A C12U C13A | 1.38
U10C U11A C12U C13U | 1.19
U10C U11A C12U C13G | 1.32
U10G U11A C12A C13U | 1.27
U10G U11A C12A C13A | 1.11
U10G U11A C12A C13G | 1.06
U10C C12U | 2.09
U10C U11A C12A C13G | 1.36
U10C U11A C12A C13A | 1.37
U10C U11A C12A C13U | 1.35
U10G U11G C12U C13G | 1.3
U10G U11G C12U C13U | 1.26
U10G U11G C12U C13A | 1.32
U11C C12G C13U | 1.33
U11C C12G C13A | 1.46
U11C C12G C13G | 1.49
U10C U11G C12A C13U | 1.3
U10C U11G C12A C13A | 1.27
U10C U11G C12A C13G | 1.31
U11A C12A C13A | 1.59
U11A C12A C13G | 1.53

Variant | aptazyme ON/OFF ratio
U11A C12A C13U | 1.47
U10G U11G C12G C13G | 1.18
U10G U11G C12G C13U | 1.26
U10G U11G C12G C13A | 1.1
U11G C12A | 1.11
U11G C12G | 1.34
U11G C12U | 1.29
U11C C12A C13A | 1.53
U11C C12A C13G | 1.43
U11C C12A C13U | 1.31
U10G U11A | 1.12
U10G U11G | 1.22
U10G U11C | 1.03
U10G C13G | 1.32
U10G C13U | 1.5
U10G C13A | 1.13
U10C U11C C12U | 1.08
U10C U11C C12G | 1.07
U10C U11C C12A | 1.27
U10G C12A C13A | 1.25
U10G C12A C13U | 1.19
U10G C12A C13G | 1.06
U10G C12A | 1.41

Variant | aptazyme ON/OFF ratio
U10G C12U | 1.58
U10G C12G | 1.12
U10C U11C C12G C13A | 1.17
U10C U11C C12G C13G | 1.16
U10C U11C C12G C13U | 1.11
C12A C13A | 1.34
C12A C13G | 1.27
C12A C13U | 1.9
U10G U11C C12G C13A | 1.28
U10G U11C C12G C13U | 1.48
U10G U11C C12G C13G | 1.14
U10C U11A C13A | 1.25
U10C U11A C13U | 1.23
U10C U11A C13G | 1.08
U10G C12G C13U | 1.34
U10G C12G C13G | 1.09
U10G C12G C13A | 1.17
U11A C12G C13G | 1.18
U11A C12G C13A | 1.11
U11A C12G C13U | 1.42
C12G C13G | 1.33
C12G C13U | 1.36
C12G C13A | 1.37

Variant | aptazyme ON/OFF ratio
U10G U11A C12U C13G | 1.2
U10G U11A C12U C13U | 1.36
U10G U11A C12U C13A | 1.28
C12U C13G | 1.29
C12U C13A | 1.28
C12U C13U | 1.26
U10C U11G C13U | 1.35
U10C U11G C13G | 1.22
U10C U11G C13A | 1.27
U11A C13U | 1.29
U11A C13A | 1.26
U11A C13G | 1.12
U11A C12U | 1.64
U11A C12A | 2.18
U11A C12G | 1.28
C12A | 1.76
C12U | 1.91
C12G | 1.45
U11C C12U C13G | 1.43
U11C C12U C13A | 1.4
U11C C12U C13U | 1.52
U10C U11A C12U | 1.45
U10C U11A C12G | 1.47

Variant | aptazyme ON/OFF ratio
U10C U11A C12A | 1.48
U10C U11C C12U C13U | 1.02
U10C U11C C12U C13G | 1.06
U10C U11C C12U C13A | 1.07
C13U | 1.38
C13A | 1.36
C13G | 1.13
U10C U11A C12G C13G | 1.25
U10C U11A C12G C13U | 1.37
U10C U11A C12G C13A | 1.29
U10G U11C C12U C13G | 1.27
U10G U11C C12U C13U | 1.11
U10G U11C C12U C13A | 1.2
U10G U11G C12U | 1.38
U10G U11G C12G | 1.4
U10G U11G C12A | 1.37
U10G U11G C13U | 1.16
U10G U11G C13G | 1.21
U10G U11G C13A | 1.26
U10C U11G C12U | 1.31
U10C U11G C12G | 1.25
U10C U11G C12A | 1.1
